Test results published in patent US5455227A, “Biologically active lipoprotein and its use” (KabiGen AB, priority 1988, dated 1995).

Test: In-vitro surface properties of lipoprotein-based artificial surfactant, pulsating bubble instrument (Example 4)
Assay type: physicochemical
Conditions: phospholipid 10 mg/ml, 37° C., compared with native lipoprotein
Description: To this mixture surfactant lipoprotein dissolved in chloroform/methanol 1:2 (v/v) was added, giving a lipoprotein to phospholipid ratio of 1:50. The solvents were evaporated to dryness and the different surfactant preparations (phospholipids, phospholipids+lipoprotein fraction) were suspended in saline giving a phospholipid concentration of 10 or 80 mg/ml.
The surface properties of the lipoprotein-based artificial surfactant were analyzed with a pulsating bubble instrument (Surfactometer International, Toronto, Canada) (30). The surfactant preparations were suspended at a phospholipid concentration of 10 mg/ml, and the pressure gradient across the bubble wall was recorded at 37° C. during 50% cyclic surface compression at the rate of 40/min. Surface tension was assessed at maximal and minimal bubble sizes during the 5th cycle and after 1 and 5 min of pulsation.
The tracings therein represent pressure gradients across the bubble wall; max and min indicate maximal (radius 0.55 mm) and minimal (radius 0.40 mm) bubble size during pulsation at a rate of 40/min. A pressure gradient close to zero at minimal bubble size corresponds to nearly zero surface tension.

lipopeptide: hexapeptide H2 N-Ile-Pro-Cys-Cys-Pro-Val-COOH conjugated with palmitoyl-chloride (thioester lipopeptide) (H-IPCCPV-OH; also: palmitoyl thioester, Cys not given here)
performance in the procedure of Example 4 (surface properties): performs similarly as the native lipoprotein
